According to patent US20100166708:

What was measured:
[1] = tryptophan fluorescence, urea dissociation of peptide complexes, 25 µM peptide
[2] = tryptophan fluorescence, urea dissociation of peptide complexes, 5 µM peptide

Substance: delta-haemolysin
- midpoint of the unfolding curve [1]: The midpoints of the unfolding curves of 5 µM and 25 µM were 2.14 and 3.20M urea
- midpoint of the unfolding curve [2]: The midpoints of the unfolding curves of 5 µM and 25 µM were 2.14 and 3.20M urea
